{"source": "patent US20240150440A1", "about": "(LUMEN BIOSCIENCE, published 2024)", "binders": {"B1": {"name": "MBP-5HVZ-R5D-B5-H6 (VHH)", "VHH": "QVQLVESGGGLVQPGGSLRLSCAASGSRDSIVAMHWYRQAPGKGREGVAGITSRWVTYYADSVKGRFTISRDNAKNTVYLQMNSLKPEDTAVYYCNAPVYYDTEWYDIWGQGTQVTVSS", "notes": "dimer"}, "B2": {"name": "MBP-5HVZ-R5D-B6-H6 (VHH)", "VHH": "QVQLVESGGGLVQPGGSLRLSCAASGRILAANIVHWYRQAPGKEREGVAGITSGGGSYYADSVKGRFTISRDNAKNTVYLQMNSLKPEDTAVYYCNALGLGQSSLYRSADPYDSWGQGTQVTVSS", "notes": "dimer"}, "B3": {"name": "PP1148 MBP-5HVZ-PAPA-R5a-C5-H6 (VHH)", "VHH": "QVQLVESGGGLVQPGGSLRLSCAASGDIFSINALHWFRQAPGKQREEVAAITSGGSTGYADSVKGRFTISRDNAKNTVYLQMNSLKPEDTAVYYCAAQQARGGLDSDYWGQGTQVTVSS", "notes": "Form: Dimer"}, "B4": {"name": "PP1136 MBP-4B0F-PAPA-R5a-C5-H6 (VHH)", "VHH": "B3 VHH", "notes": "Form: Heptamer"}, "B5": {"name": "PP1149 MBP-5HVZ-PAPA-R5a-E5-H6 (VHH)", "VHH": "QVQLVESGGGLVQPGGSLRLSCAASGYDFDILRMAWFRQAPGKEREMVAAITSAESVNYEDSVKGRFTISRDNAKNTVYLQMNSLKPEDTAVYYCATYDYTDDYGYASWGQGTQVTVSS", "notes": "Form: Dimer"}, "B6": {"name": "PP1143 MBP-5HVZ-PAPA-R2b-D5-H6 (VHH)", "VHH": "QVQLVESGGGLVQPGGSLRLSCAASGYADEINMVHWYRQAPGKGREFVAAIASGGSTFYADSVKGRFTISRDNAKNTVYLQMNSLKPEDTAVYYCAAIPRPSLSYAHDYAYWGQGTQVTVSS", "notes": "Form: Dimer"}, "B7": {"name": "PP1131 MBP-4B0F-PAPA-R2b-D5-H6 (VHH)", "VHH": "B6 VHH", "notes": "Form: Heptamer"}, "B8": {"name": "MBP-R2B-D5-H6 (VHH)", "VHH": "B6 VHH", "notes": "monomer"}, "B9": {"name": "PP1155 MPB-scTRP-PAPA-R2b-D5-H6 (VHH)", "VHH": "B6 VHH", "notes": "Form: Trimer"}, "B10": {"name": "dimeric VHH (VHH-5HVZ-MBP) R2B-E6 (VHH)", "VHH": "QVQLVESGGGLVQPGGSLRLSCAASGGVTRGNAMAWYRQAPGKQREIVAAIDNGGSHAYGDSVKGRFTISRDNAKNTVYLQMNSLKPEDTAVYYCAVFPDHDSEQASIDRVYWGQGTQVTVSS"}, "B11": {"name": "PP1147 MBP-5HVZ-PAPA-R5a-B7-H6 (VHH)", "VHH": "QVQLVESGGGLVQPGGSLRLSCAASGAFFSYGAIHWFRQAPGKQREEVAAITSGGSTGYADSVKGRFTISRDNAKNTVYLQMNSLKPEDTAVYYCNAGVVWLPSNAAYNLWGQGTQVTVSS", "notes": "Form: Dimer"}, "B12": {"name": "PP848 MBP-R5E-G2-H6 (VHH)", "VHH": "QVQLVESGGGLVQPGGSLRLSCAASGTIKSINAMHWFRQAPGKAREFVASIGSNGAKSYSDSVKGRFTISRDNAKNTVYLQMNSLKPEDTAVYYCTALITVAESDDYDYWGQGTQVTVSS", "notes": "Form: Monomer"}, "B13": {"name": "PP847 MBP-R5E-D1-H6 (VHH)", "VHH": "QVQLVESGGGLVQPGGSLRLSCAASGFEFSTSAMHWYRQAPGKQREWVARITSGGSDNYGDSVKGRFTISRDNAKNTVYLQMNSLKPEDTAVYYCAAYVGTDNYGYDYWGQGTQVTVSS", "notes": "Form: Monomer"}, "B14": {"name": "PP935 MBP-5HVZ-S3b-E11-H6 (VHH)", "VHH": "QVQLVESGGGLVQPGGSLRLSCAASGDIYSQSAMAWYRQAPGKEREFVAAITTTGSRSYKDSVKGRFTISRDNAKNTVYLQMNSLKPEDTAVYYCAAFAVRSSSVSDAYDYWGQGTQVTVSS", "notes": "Form: Dimer"}, "B15": {"name": "PP1097 MBP-5HVZ-PAPA-RN-5-H6 (VHH)", "VHH": "QVQLVESGGGLVQPGGSLRLSCAASGSSFRILAMHWYRQAPGKNREWVAVITSNGNTYYADSVKGRFTISRDNAKNTVYLQMNSLKPEDTAVYYCNADTLDLDDGATYNYWGQGTQVTVSS"}, "B16": {"name": "PP1100 MBP-5HVZ-PAPA-RN-14-H6 (VHH)", "VHH": "QVQLVESGGGLVQPGGSLRLSCAASGENFSGNLVHWFRQAPGKAREGVATVTSTGSGYYADSVKGRFTISRDNAKNTVYLQMNSLKPEDTAVYYCAAKHQKGEIPYYDWGQGTQVTVSS", "notes": "Form: Dimer"}, "B17": {"name": "PP1151 MBP-5HVZ-PAPA-R5d-B5-H6 (VHH)", "VHH": "B1 VHH", "notes": "Form: Dimer"}, "B18": {"name": "PP1152 MBP-5HVZ-PAPA-R5d-B6-H6 (VHH)", "VHH": "B2 VHH", "notes": "Form: Dimer"}}, "data": [{"target": "T1, recombinant SARS-CoV-2 RBD with C-terminal AviTag (SARS-CoV-2, UniProt P0DTC2 319-541)", "test": "ELISA, competition with coated ACE2-Fc for RBD [Cont. 4]", "units": {"IC50": "nM"}, "values": [{"binder": "B1", "IC50": 53.7}, {"binder": "B2", "IC50": 15.7}]}, {"target": "T2, SARS-CoV-2 spike protein on pseudotyped lentivirus (Wuhan Reference Pseudovirus) (SARS-CoV-2, UniProt P0DTC2 14-1273)", "test": "cell-based or functional assay", "units": {"Pseudovirus inhibition IC50 [Cont. 2]": "nM"}, "values": [{"binder": "B3", "Pseudovirus inhibition IC50 [Cont. 2]": 4.7}, {"binder": "B4", "Pseudovirus inhibition IC50 [Cont. 2]": 0.35}, {"binder": "B5", "Pseudovirus inhibition IC50 [Cont. 2]": 74.7}]}, {"target": "T2, SARS-CoV-2 spike protein on pseudotyped …", "test": "cell-based or functional assay", "remark": "another data set of the same source", "units": {"Pseudovirus inhibition IC50": "nM"}, "values": [{"binder": "B6", "Pseudovirus inhibition IC50": 0.6}, {"binder": "B7", "Pseudovirus inhibition IC50": 0.89}, {"binder": "B8", "Pseudovirus inhibition IC50": 176}, {"binder": "B9", "Pseudovirus inhibition IC50": 1.9}, {"binder": "B10", "Pseudovirus inhibition IC50": 358}]}, {"target": "T2, SARS-CoV-2 spike protein on pseudotyped …", "test": "cell-based or functional assay", "remark": "another data set of the same source", "units": {"Pseudovirus inhibition IC50 [Cont. 6]": "nM"}, "values": [{"binder": "B11", "Pseudovirus inhibition IC50 [Cont. 6]": 0.44}]}, {"target": "T1, recombinant SARS-CoV-2 RBD with …", "test": "ELISA, competition with coated ACE2-Fc for RBD [Cont. 5]", "units": {"IC50": "nM"}, "values": [{"binder": "B12", "IC50": 2.1}, {"binder": "B13", "IC50": 2.9}]}, {"target": "T3, SARS-CoV-2 Gamma Variant RBD (SARS-CoV-2 Gamma variant)", "T3 construct": "domain: RBD; coated on ELISA plates", "test": "ELISA, RBD coated", "units": {"EC50": "nM"}, "values": [{"binder": "B14", "EC50": 167}, {"binder": "B3", "EC50": 9.06}, {"binder": "B15", "EC50": 58.6}, {"binder": "B5", "EC50": 134}]}, {"target": "T4, SARS-CoV-2 Beta Variant RBD (SARS-CoV-2 Beta variant)", "T4 construct": "domain: RBD; coated on ELISA plates", "test": "ELISA, RBD coated", "units": {"EC50": "nM"}, "values": [{"binder": "B14", "EC50": 343}, {"binder": "B3", "EC50": 30.5}, {"binder": "B15", "EC50": 95.4}, {"binder": "B5", "EC50": 58}]}, {"target": "T5, SARS-CoV-2 Alpha Variant RBD (SARS-CoV-2 Alpha variant)", "T5 construct": "domain: RBD; coated on ELISA plates", "test": "ELISA, RBD coated", "units": {"EC50": "nM"}, "values": [{"binder": "B11", "EC50": 0.33}, {"binder": "B14", "EC50": 0.47}, {"binder": "B16", "EC50": 0.35}, {"binder": "B3", "EC50": 0.33}, {"binder": "B15", "EC50": 0.3}, {"binder": "B5", "EC50": 3.01}]}, {"target": "T6, SARS-CoV-2 Delta Variant RBD (SARS-CoV-2 Delta variant)", "T6 construct": "domain: RBD; coated on ELISA plates", "test": "ELISA, RBD coated", "units": {"EC50": "nM"}, "values": [{"binder": "B11", "EC50": 0.49}, {"binder": "B14", "EC50": 151}, {"binder": "B16", "EC50": 46.5}, {"binder": "B3", "EC50": 0.22}, {"binder": "B15", "EC50": 244}]}, {"target": "T2, SARS-CoV-2 spike protein on pseudotyped …", "test": "cell-based or functional assay", "remark": "another data set of the same source", "units": {"Pseudovirus inhibition IC50 [Cont. 4]": "nM"}, "values": [{"binder": "B17", "Pseudovirus inhibition IC50 [Cont. 4]": 43.7}, {"binder": "B1", "Pseudovirus inhibition IC50 [Cont. 4]": 3.25}, {"binder": "B18", "Pseudovirus inhibition IC50 [Cont. 4]": 0.85}, {"binder": "B2", "Pseudovirus inhibition IC50 [Cont. 4]": 3.26}]}, {"target": "T2, SARS-CoV-2 spike protein on pseudotyped …", "test": "cell-based or functional assay", "remark": "another data set of the same source", "units": {"Pseudovirus inhibition IC50 [Cont. 8]": "nM"}, "values": [{"binder": "B14", "Pseudovirus inhibition IC50 [Cont. 8]": 68.4}, {"binder": "B16", "Pseudovirus inhibition IC50 [Cont. 8]": 13.9}, {"binder": "B15", "Pseudovirus inhibition IC50 [Cont. 8]": 54.5}]}, {"target": "T2, SARS-CoV-2 spike protein on pseudotyped …", "test": "cell-based or functional assay", "remark": "another data set of the same source", "units": {"Pseudovirus neutralization IC50": "nM"}, "values": [{"binder": "B11", "Pseudovirus neutralization IC50": 12.3}, {"binder": "B6", "Pseudovirus neutralization IC50": 0.301}, {"binder": "B7", "Pseudovirus neutralization IC50": 0.93}, {"binder": "B9", "Pseudovirus neutralization IC50": 0.634}, {"binder": "B14", "Pseudovirus neutralization IC50": 34.2}, {"binder": "B16", "Pseudovirus neutralization IC50": 6.95}, {"binder": "B3", "Pseudovirus neutralization IC50": 15.7}, {"binder": "B4", "Pseudovirus neutralization IC50": 0.05}, {"binder": "B17", "Pseudovirus neutralization IC50": 15.3}, {"binder": "B18", "Pseudovirus neutralization IC50": 3.87}, {"binder": "B15", "Pseudovirus neutralization IC50": 27.3}, {"binder": "B5", "Pseudovirus neutralization IC50": 37.3}]}, {"target": "SARS-CoV-2 Gamma Variant spike protein on pseudotyped lentivirus (SARS-CoV-2 Gamma variant)", "test": "cell-based or functional assay", "units": {"Pseudovirus neutralization IC50": "nM"}, "values": [{"binder": "B6", "Pseudovirus neutralization IC50": 3.13}]}, {"target": "SARS-CoV-2 Delta Variant spike protein on pseudotyped lentivirus (SARS-CoV-2 Delta variant)", "test": "cell-based or functional assay", "units": {"Pseudovirus neutralization IC50": "nM"}, "values": [{"binder": "B11", "Pseudovirus neutralization IC50": 1.13}, {"binder": "B3", "Pseudovirus neutralization IC50": 0.53}]}, {"target": "T2, SARS-CoV-2 spike protein on pseudotyped …", "test": "cell-based or functional assay", "remark": "another data set of the same source", "units": {"infectivity % under 10 ug/mL VHH treatment": "%"}, "values": [{"binder": "B11", "infectivity % under 10 ug/mL VHH treatment": 1.79}, {"binder": "B6", "infectivity % under 10 ug/mL VHH treatment": 0.09}, {"binder": "B7", "infectivity % under 10 ug/mL VHH treatment": -0.01}, {"binder": "B9", "infectivity % under 10 ug/mL VHH treatment": 0.01}, {"binder": "B14", "infectivity % under 10 ug/mL VHH treatment": 48.9}, {"binder": "B16", "infectivity % under 10 ug/mL VHH treatment": 17.2}, {"binder": "B3", "infectivity % under 10 ug/mL VHH treatment": 5.95}, {"binder": "B4", "infectivity % under 10 ug/mL VHH treatment": 1.53}, {"binder": "B17", "infectivity % under 10 ug/mL VHH treatment": 35.6}, {"binder": "B12", "infectivity % under 10 ug/mL VHH treatment": 81.9}, {"binder": "B13", "infectivity % under 10 ug/mL VHH treatment": 77.1}, {"binder": "B18", "infectivity % under 10 ug/mL VHH treatment": 4.64}, {"binder": "B15", "infectivity % under 10 ug/mL VHH treatment": 18.6}, {"binder": "B5", "infectivity % under 10 ug/mL VHH treatment": 25.5}]}]}
